The assay has as its target CD16 (FcγRIIIa/CD16a), high affinity variant with valine at amino acid 176, expressed on haNK003 cells (human) (UniProt P08637). Briefly: cell-based or functional assay.
Sequence of UniProt P08637 (P08637 other isoform, or with tags, fused parts or gaps mutant limits assumed): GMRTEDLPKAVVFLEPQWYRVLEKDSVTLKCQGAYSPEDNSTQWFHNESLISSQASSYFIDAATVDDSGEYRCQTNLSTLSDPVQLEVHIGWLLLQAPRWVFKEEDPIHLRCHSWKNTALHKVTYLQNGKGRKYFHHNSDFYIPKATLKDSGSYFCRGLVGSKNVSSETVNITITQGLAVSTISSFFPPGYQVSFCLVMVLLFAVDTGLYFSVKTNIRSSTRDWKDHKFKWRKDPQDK

For the substance Rituximab (antibody), the ADCC assay (specific lysis), haNK003 at 1:1 E:T Ratio with Rituxan (3.3 µg/mL) vs DOHH2 stood at 52.8%.

Source of the values: US20260078342A1.
